Experimental data taken from PMC9482650, “Quantitative fragmentomics allow affinity mapping of interactomes” (Nature Communications, 2022).

T1: LNX2_1, Q8N448
T1 sequence (Q8N448 228-328, limits assumed, looked up): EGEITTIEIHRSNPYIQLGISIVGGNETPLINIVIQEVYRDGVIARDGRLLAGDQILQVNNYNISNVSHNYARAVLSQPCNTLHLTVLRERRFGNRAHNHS


Columns and labels:
Experiment in all cases: holdup assay
Set-up in all cases: key: below the threshold = too weak to quantify, mostly under pKd 3.1 to 4
Settings in all cases: plain residues with an end cap or a label only (N-terminal biotin on a linker: ttds)
LIMK1, P53667 = biological target: LIMK1, P53667
Chain of LIMK1, P53667 (P53667 155-268): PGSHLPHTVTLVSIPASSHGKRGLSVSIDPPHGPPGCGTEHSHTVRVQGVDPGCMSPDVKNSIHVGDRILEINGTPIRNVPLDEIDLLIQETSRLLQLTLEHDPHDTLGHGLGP

Q13368 = biological target: Q13368
Q13009 = biological target: Q13009
O15021 = biological target: O15021
Q92614 = biological target: Q92614
Q9Y3R0 = biological target: Q9Y3R0
Q96FS4 = biological target: Q96FS4
Q6ZWJ1 = biological target: Q6ZWJ1
Q96HC4 = biological target: Q96HC4
Q9UDY2 = biological target: Q9UDY2
O00560 = biological target: O00560
Q8IUC4 = biological target: Q8IUC4
Q9NR12 = biological target: Q9NR12
O00233 = biological target: O00233
O75970 = biological target: O75970
Q8TEW0 = biological target: Q8TEW0
Q9NPB6 = biological target: Q9NPB6
Q96JB8 = biological target: Q96JB8
Q9UMS6 = biological target: Q9UMS6
O60759 = biological target: O60759
Q9C0E4 = biological target: Q9C0E4
Q8TB45 = biological target: Q8TB45
Q8TDM6 = biological target: Q8TDM6
Q9P227 = biological target: Q9P227
Q9ULJ8 = biological target: Q9ULJ8
PTPN13_2, Q12923 = biological target: PTPN13_2, Q12923
Chain of PTPN13_2, Q12923 (Q12923 1363-1462): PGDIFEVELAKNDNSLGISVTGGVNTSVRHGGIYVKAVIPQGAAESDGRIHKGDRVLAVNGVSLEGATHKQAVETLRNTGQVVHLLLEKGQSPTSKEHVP

LNX2_1, Q8N448 = biological target: T1, LNX2_1, Q8N448

Binder	pKd (LIMK1, P53667)	pKd (Q13368)	pKd (Q13009)	pKd (O15021)	pKd (Q92614)	pKd (Q9Y3R0)	pKd (Q96FS4)	pKd (Q6ZWJ1)	pKd (Q96HC4)	pKd (Q9UDY2)	pKd (O00560)	pKd (Q8IUC4)	pKd (Q9NR12)	pKd (O00233)	pKd (O75970)	pKd (Q8TEW0)	pKd (Q9NPB6)	pKd (Q96JB8)	pKd (Q9UMS6)	pKd (O60759)	other results
SRSRRRETAL [HPV33-E6, P06427]	below the threshold	–	–	–	–	–	–	–	–	–	–	–	–	–	–	–	–	–	–	–	–
SSIDLWETAL [SLC15A5, A6NIM6]	below the threshold	below the threshold	below the threshold	below the threshold	below the threshold	below the threshold	below the threshold	below the threshold	below the threshold	below the threshold	below the threshold	below the threshold	below the threshold	below the threshold	below the threshold	below the threshold	below the threshold	below the threshold	below the threshold	below the threshold	pKd (Q9C0E4): below the threshold; pKd (Q8TB45): below the threshold; pKd (Q8TDM6): below the threshold; pKd (Q9P227): below the threshold; pKd (Q9ULJ8): below the threshold
SHSSKGETAV [FZD7, O75084]	below the threshold	below the threshold	below the threshold	below the threshold	below the threshold	below the threshold	below the threshold	below the threshold	below the threshold	below the threshold	below the threshold	below the threshold	below the threshold	below the threshold	below the threshold	below the threshold	below the threshold	below the threshold	below the threshold	below the threshold	pKd (PTPN13_2, Q12923): below the threshold; pKd (Q9C0E4): below the threshold; pKd (Q8TB45): below the threshold; pKd (Q8TDM6): below the threshold; pKd (Q9P227): below the threshold; pKd (Q9ULJ8): below the threshold
KLVIKTETTV [RASSF6, Q6ZTQ3]	4.37	below the threshold	below the threshold	below the threshold	below the threshold	below the threshold	below the threshold	below the threshold	below the threshold	below the threshold	below the threshold	below the threshold	below the threshold	below the threshold	below the threshold	below the threshold	below the threshold	below the threshold	below the threshold	below the threshold	pKd (PTPN13_2, Q12923): below the threshold; pKd (Q9C0E4): below the threshold; pKd (Q8TB45): below the threshold; pKd (Q8TDM6): below the threshold; pKd (Q9ULJ8): below the threshold
PSRDRKETSI [RALBP1, Q15311]	4.16	below the threshold	below the threshold	below the threshold	below the threshold	below the threshold	below the threshold	below the threshold	below the threshold	below the threshold	below the threshold	below the threshold	below the threshold	below the threshold	below the threshold	below the threshold	below the threshold	below the threshold	below the threshold	below the threshold	pKd (PTPN13_2, Q12923): 3.79; pKd (Q9C0E4): below the threshold; pKd (Q8TB45): below the threshold; pKd (Q8TDM6): below the threshold; pKd (Q9P227): below the threshold; pKd (Q9ULJ8): below the threshold
PPRQRSETQV [HPV82-E6, Q9IR59]	–	below the threshold	below the threshold	below the threshold	below the threshold	below the threshold	below the threshold	below the threshold	below the threshold	below the threshold	below the threshold	below the threshold	below the threshold	below the threshold	below the threshold	below the threshold	below the threshold	below the threshold	below the threshold	below the threshold	pKd (PTPN13_2, Q12923): below the threshold; pKd (Q9C0E4): below the threshold; pKd (Q8TB45): below the threshold; pKd (Q8TDM6): below the threshold; pKd (Q9P227): below the threshold; pKd (Q9ULJ8): below the threshold
SGGKRKETLV [NET1, Q7Z628]	–	–	–	–	–	–	–	–	–	–	–	–	–	–	–	–	–	–	–	–	pKd (PTPN13_2, Q12923): below the threshold; pKd (LNX2_1, Q8N448): below the threshold
